For test [1], the target named is human TGF-β1-LAP (amino acid residues position-30 to position-390), recombinant, Example 4 (human) (UniProt P01137). In words: SPR, Biacore T200; antibody immobilised on CM5, analyte 1.56-25 nM.
The target in test [2] is complex of human TGF-β1 LAP-D and A2D109 antibody Fab fragment (human) (UniProt P01137). Put plainly: SPR, Biacore T200; antibody immobilised on CM5, analyte is the preformed LAP/A2D109 Fab complex, 1.56-25 nM.
For test [3], the target named is T1, human TGF-β1-LAP (amino acid residues position-30 to position-390), recombinant, Example 4 (human, UniProt P01137 30-390).
T1 construct: Expressed in HEK293F cells behind an Igk signal with a TEV-cleavable His tag, which was cut off; Stated molecular weight 41653 Da; also called human TGF-β1 LAP-D; TGF-β LAP
T1 sequence (P01137 30-390): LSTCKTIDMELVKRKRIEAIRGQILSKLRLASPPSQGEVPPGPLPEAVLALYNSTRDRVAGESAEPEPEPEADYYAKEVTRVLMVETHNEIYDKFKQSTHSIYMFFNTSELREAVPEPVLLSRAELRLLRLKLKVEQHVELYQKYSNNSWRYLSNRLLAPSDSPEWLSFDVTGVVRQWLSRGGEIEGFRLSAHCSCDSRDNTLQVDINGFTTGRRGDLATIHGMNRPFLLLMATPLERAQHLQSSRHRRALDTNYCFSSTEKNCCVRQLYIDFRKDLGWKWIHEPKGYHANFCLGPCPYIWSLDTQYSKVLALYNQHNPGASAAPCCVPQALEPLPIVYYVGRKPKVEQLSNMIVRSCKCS
In words: complex formation, gel filtration. The protocol: A Fab fragment (A2D109 Fab) was prepared from the A2D109 antibody using Pierce (trademark) Mouse IgG1 Fab and F(ab′)2 Preparation Kit (manufactured by Thermo Fisher). The concrete operation of the procedure was carried out in accordance with the manual included in the kit. A reaction solution produced by the procedure was purified by gel filtration using Superdex 200 Increase 10/300 GL (manufactured by GE Healthcare). A 50-kDa elution fraction was collected, and the fraction was used as A2D109 Fab. Purified recombinant TGF-β1-LAP and purified A2D109 Fab were mixed together at a molar mixing ratio of 1:1. A complex thus produced was purified by gel filtration chromatography (HiLoad 16/600 Superdex 200 pg, manufactured by GE Healthcare) using a column equilibrated with a buffer composed of 20 mM Tris-HCl (pH 8.0), 150 mM NaCl and 10% glycerol.

Test [4] concerns the target T1, human TGF-β1-LAP (amino acid residues …). In words: SPR, Biacore T200; antibody immobilised on CM5, analyte 1.56-25 nM. The protocol: (§1) Each of the anti-LAP-D antibody (A10) and the BAM2462 antibody was immobilized on a Biacore (registered trademark) sensor chip Series S Sensor Chip CM5 (manufactured by GE Healthcare). The amounts of these antibodies immobilized were 2027 RU and 310 RU, respectively. Each of a solution of human TGF-β1 LAP and a solution of a complex of human TGF-β1 LAP and A2D109 Fab was diluted with a buffer composed of 10 mM of HEPES-NaOH (pH 7.5), 150 mM of NaCl, 3 mM of EDTA and 0.005% of Surfactant P-20 to prepare solutions having various concentrations. Each of these solutions was fed to Biacore (registered trademark) T200 (manufactured by GE Healthcare). The analyte concentration in each of the solutions and the measurement conditions are shown below. Measurement data were analyzed using Biacore (registered trademark) Evaluation software to acquire date on the affinity of each of the antibodies.

Test [5] addresses T2, complex of human TGF-β1 LAP-D and A2D109 antibody Fab fragment (human, UniProt P01137 30-390).
T2 construct: Preformed complex, mixed 1:1 by moles and purified by gel filtration; Stated molecular weight 89514 Da; Used as the SPR analyte; also called TGF-β LAP-A2D109Fab; complex of human TGF-β1 LAP and A2D109 Fab
Put plainly: SPR, Biacore T200; antibody immobilised on CM5, analyte is the preformed LAP/A2D109 Fab complex, 1.56-25 nM. On the procedure: as §1

These results are taken from patent US20210017265A1 (RIKEN, published 2021).

Chain of complex of human TGF-β1 LAP-D and A2D109 antibody Fab fragment (human) (P01137 30-390, one chain of several): as the sequence (P01137 30-390) above
Chain of human TGF-β1-LAP (amino acid residues position-30 to position-390), recombinant, Example 4 (human) (P01137 30-390): as above
T2 sequence (P01137 30-390, one chain of several): as the sequence (P01137 30-390) above

Consider “anti-human LAP TGF-β1 antibody (BAM2462, manufactured by R&D Systems)”, for which, in test [1], the Kd is 0.0167 nM, the koff stood at 2.34e-05 s⁻¹ and the kon stood at 1.4e+06 M⁻¹ s⁻¹. In test [2], the Kd was found to be 0.345 nM, the koff was 0.000154 s⁻¹ and the kon came out at 447000 M⁻¹ s⁻¹.

B1: A2D109 antibody Fab fragment (Fab, V domains shown)
VH: EVQLQQSGAELVRPGASVKLSCKASGYTFTSYWMNWVKQRPGQGLEWIGMIDPSDSETHYNQMFKDKATLTVDKSSSTAYMQLSSLTSEDSAVYYCVNWPYALDYWGQGTSVTVSS
VL: QIVLTQSPAIMSASPGEKVTMTCSASSSVSYMHWFQQKPGTSPKLWIYSTSNLASGVPARFSGSGSGTSYSLTISRMEAEDAATYYCQQRSSYPFTFGSGTKLEIKR
notes: Fab made from the mouse A2D109 antibody with a Mouse IgG1 Fab preparation kit; 50-kDa gel filtration fraction; the constant parts of the Fab are not; also called A2D109 Fab; A2D109Fab
For the molecule B1, the binding result in test [3] is “binds”.

B2: anti-LAP-D antibody (A10) (antibody, mouse IgG1, kappa, V domains shown)
VH: QVQLQQPGAELVRPGASVKLSCKTSGYSFTRFWMNWVRQRPGQGLEWIGMIHSSDSITRLNQKFKDKATLTLDYSSSTAYMQLSSPTSEDSAVYYCARGYDEYSAMDYWGQGTSVPVSS
VL: DIQMTQSPSSLSASLGERVSLTCRASHEISGYLGWLQRQPDGTIKRLIYAASTLDSGVPKRFSGSRSGSDYSLTISSLESEDFADYYCLQYASYPFTFGSGTKLEVKR
notes: Biotin-labelled when used as ELISA detection antibody; immobilised on a CM5 chip in SPR; also called isolated monoclonal antibody of the present embodiment
As for B2, in test [4], the Kd turned out to be 0.214 nM, the koff came out at 4.17e-05 s⁻¹ and the kon came out at 195000 M⁻¹ s⁻¹. In test [5], this molecule returned a koff of 0.000201 s⁻¹ and a kon of 304000 M⁻¹ s⁻¹.
